Several values for one entry are separate records, joined by “and”; a condition that tells them apart may be missing. Equal entries are not always repeated.
How the values were obtained:
[1] = target: A4V mutant copper-zinc superoxide dismutase (A4VSOD1) (human) (UniProt P00441); assay: atomic force microscopy
[2] = target: A4V mutant copper-zinc superoxide dismutase (A4VSOD1) (human) (UniProt P00441); assay: AUC

stoichiometry N [1]: 4 | percent of total protein as dimer [2]: 31.7% | percent of total protein as tetramer [2]: 37.6% | stoichiometry N [2]: 2 and 4
Substance: A4V mutant copper-zinc superoxide dismutase (A4VSOD1) (from UniProt P00441 6-154) (enzyme)
